Starred links: 1 amine or outer side, 2 acyl side, 3 side chain; linkers in the order of their positions; H or OH if unused. Non-standard residues stand in square brackets, D forms with d. Groups on a side chain read outwards from the residue. No end group written: not given here. *: point of attachment. C20 diacid = O=C(O)CCCCCCCCCCCCCCCCCCC(=O)*; C18 diacid = O=C(O)CCCCCCCCCCCCCCCCC(=O)*; γGlu = O=C(O)[C@H](CCC(=O)[*:2])N[*:1]; AEEA = NCCOCCOCC(=O)O; Aib = CC(C)(N)C(=O)O
T1: anti-target CRF1R receptor (UniProt P34998 24-415, limits assumed)
T1 sequence (looked up): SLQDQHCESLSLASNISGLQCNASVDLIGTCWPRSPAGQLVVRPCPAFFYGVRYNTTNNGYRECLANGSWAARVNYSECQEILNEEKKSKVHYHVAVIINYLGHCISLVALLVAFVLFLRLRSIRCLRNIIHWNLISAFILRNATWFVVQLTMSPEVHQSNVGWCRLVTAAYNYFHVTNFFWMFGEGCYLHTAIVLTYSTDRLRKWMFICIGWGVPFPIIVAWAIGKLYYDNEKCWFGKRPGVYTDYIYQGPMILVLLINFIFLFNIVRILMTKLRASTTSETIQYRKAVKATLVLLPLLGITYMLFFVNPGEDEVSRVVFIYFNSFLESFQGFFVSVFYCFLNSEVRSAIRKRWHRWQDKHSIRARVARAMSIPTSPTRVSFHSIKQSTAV

T2: endogenous human CRF2 (NCI-H82 cells) (human, UniProt Q13324 20-411)
T2 sequence (looked up): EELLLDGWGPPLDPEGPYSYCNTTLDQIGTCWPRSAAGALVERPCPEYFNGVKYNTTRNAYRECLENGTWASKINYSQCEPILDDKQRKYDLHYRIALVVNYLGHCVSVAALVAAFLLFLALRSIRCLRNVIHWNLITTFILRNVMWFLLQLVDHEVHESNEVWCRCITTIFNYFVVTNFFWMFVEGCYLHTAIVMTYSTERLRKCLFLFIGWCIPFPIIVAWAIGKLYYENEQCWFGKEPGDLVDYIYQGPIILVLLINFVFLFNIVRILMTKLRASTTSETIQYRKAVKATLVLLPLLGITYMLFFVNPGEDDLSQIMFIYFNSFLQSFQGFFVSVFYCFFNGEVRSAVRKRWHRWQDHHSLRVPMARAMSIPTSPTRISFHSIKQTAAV

B1: peptide of SEQ ID NO: 81 (peptide)
peptide: IVLSLDVPIKLK([AEEA-AEEA-γGlu-C20 diacid])QILLEQEKQK[Aib]QREQAETNKQILAQV-NH2
modifications: N-terminus assumed
SMILES: CC[C@H](C)[C@H](N)C(=O)N[C@H](C(=O)N[C@@H](CC(C)C)C(=O)N[C@@H](CO)C(=O)N[C@@H](CC(C)C)C(=O)N[C@@H](CC(=O)O)C(=O)N[C@H](C(=O)N1CCC[C@H]1C(=O)N[C@H](C(=O)N[C@@H](CCCCN)C(=O)N[C@@H](CC(C)C)C(=O)N[C@@H](CCCCNC(=O)COCCOCCNC(=O)COCCOCCNC(=O)CC[C@H](NC(=O)CCCCCCCCCCCCCCCCCCC(=O)O)C(=O)O)C(=O)N[C@@H](CCC(N)=O)C(=O)N[C@H](C(=O)N[C@@H](CC(C)C)C(=O)N[C@@H](CC(C)C)C(=O)N[C@@H](CCC(=O)O)C(=O)N[C@@H](CCC(N)=O)C(=O)N[C@@H](CCC(=O)O)C(=O)N[C@@H](CCCCN)C(=O)N[C@@H](CCC(N)=O)C(=O)N[C@@H](CCCCN)C(=O)NC(C)(C)C(=O)N[C@@H](CCC(N)=O)C(=O)N[C@@H](CCCNC(=N)N)C(=O)N[C@@H](CCC(=O)O)C(=O)N[C@@H](CCC(N)=O)C(=O)N[C@@H](C)C(=O)N[C@@H](CCC(=O)O)C(=O)N[C@H](C(=O)N[C@@H](CC(N)=O)C(=O)N[C@@H](CCCCN)C(=O)N[C@@H](CCC(N)=O)C(=O)N[C@H](C(=O)N[C@@H](CC(C)C)C(=O)N[C@@H](C)C(=O)N[C@@H](CCC(N)=O)C(=O)N[C@H](C(N)=O)C(C)C)[C@@H](C)CC)[C@@H](C)O)[C@@H](C)CC)[C@@H](C)CC)C(C)C)C(C)C
B2: peptide of SEQ ID NO: 101 (peptide)
peptide: IVLSLDVPIKLK([AEEA-AEEA-γGlu-C18 diacid])KILLKQERQKK[Aib]REQAETNKQILERV-NH2
modifications: N-terminus assumed
SMILES: CC[C@H](C)[C@H](N)C(=O)N[C@H](C(=O)N[C@@H](CC(C)C)C(=O)N[C@@H](CO)C(=O)N[C@@H](CC(C)C)C(=O)N[C@@H](CC(=O)O)C(=O)N[C@H](C(=O)N1CCC[C@H]1C(=O)N[C@H](C(=O)N[C@@H](CCCCN)C(=O)N[C@@H](CC(C)C)C(=O)N[C@@H](CCCCNC(=O)COCCOCCNC(=O)COCCOCCNC(=O)CC[C@H](NC(=O)CCCCCCCCCCCCCCCCC(=O)O)C(=O)O)C(=O)N[C@@H](CCCCN)C(=O)N[C@H](C(=O)N[C@@H](CC(C)C)C(=O)N[C@@H](CC(C)C)C(=O)N[C@@H](CCCCN)C(=O)N[C@@H](CCC(N)=O)C(=O)N[C@@H](CCC(=O)O)C(=O)N[C@@H](CCCNC(=N)N)C(=O)N[C@@H](CCC(N)=O)C(=O)N[C@@H](CCCCN)C(=O)N[C@@H](CCCCN)C(=O)NC(C)(C)C(=O)N[C@@H](CCCNC(=N)N)C(=O)N[C@@H](CCC(=O)O)C(=O)N[C@@H](CCC(N)=O)C(=O)N[C@@H](C)C(=O)N[C@@H](CCC(=O)O)C(=O)N[C@H](C(=O)N[C@@H](CC(N)=O)C(=O)N[C@@H](CCCCN)C(=O)N[C@@H](CCC(N)=O)C(=O)N[C@H](C(=O)N[C@@H](CC(C)C)C(=O)N[C@@H](CCC(=O)O)C(=O)N[C@@H](CCCNC(=N)N)C(=O)N[C@H](C(N)=O)C(C)C)[C@@H](C)CC)[C@@H](C)O)[C@@H](C)CC)[C@@H](C)CC)C(C)C)C(C)C
B3: peptide of SEQ ID NO: 130 (peptide)
peptide: IVLSLD[dV]PIKLK([AEEA-AEEA-γGlu-C18 diacid])QILLKQERQK[Aib]QREQAEKNKQILAQV-NH2
modifications: N-terminus assumed
SMILES: CC[C@H](C)[C@H](N)C(=O)N[C@H](C(=O)N[C@@H](CC(C)C)C(=O)N[C@@H](CO)C(=O)N[C@@H](CC(C)C)C(=O)N[C@@H](CC(=O)O)C(=O)N[C@@H](C(=O)N1CCC[C@H]1C(=O)N[C@H](C(=O)N[C@@H](CCCCN)C(=O)N[C@@H](CC(C)C)C(=O)N[C@@H](CCCCNC(=O)COCCOCCNC(=O)COCCOCCNC(=O)CC[C@H](NC(=O)CCCCCCCCCCCCCCCCC(=O)O)C(=O)O)C(=O)N[C@@H](CCC(N)=O)C(=O)N[C@H](C(=O)N[C@@H](CC(C)C)C(=O)N[C@@H](CC(C)C)C(=O)N[C@@H](CCCCN)C(=O)N[C@@H](CCC(N)=O)C(=O)N[C@@H](CCC(=O)O)C(=O)N[C@@H](CCCNC(=N)N)C(=O)N[C@@H](CCC(N)=O)C(=O)N[C@@H](CCCCN)C(=O)NC(C)(C)C(=O)N[C@@H](CCC(N)=O)C(=O)N[C@@H](CCCNC(=N)N)C(=O)N[C@@H](CCC(=O)O)C(=O)N[C@@H](CCC(N)=O)C(=O)N[C@@H](C)C(=O)N[C@@H](CCC(=O)O)C(=O)N[C@@H](CCCCN)C(=O)N[C@@H](CC(N)=O)C(=O)N[C@@H](CCCCN)C(=O)N[C@@H](CCC(N)=O)C(=O)N[C@H](C(=O)N[C@@H](CC(C)C)C(=O)N[C@@H](C)C(=O)N[C@@H](CCC(N)=O)C(=O)N[C@H](C(N)=O)C(C)C)[C@@H](C)CC)[C@@H](C)CC)[C@@H](C)CC)C(C)C)C(C)C
B4: peptide of SEQ ID NO: 135 (peptide)
peptide: IVLSLD[dV]PIKLK([AEEA-AEEA-γGlu-C18 diacid])QILLKQERQK[Aib]QRQQAEKNKQILAQV-NH2
modifications: N-terminus assumed
SMILES: CC[C@H](C)[C@H](N)C(=O)N[C@H](C(=O)N[C@@H](CC(C)C)C(=O)N[C@@H](CO)C(=O)N[C@@H](CC(C)C)C(=O)N[C@@H](CC(=O)O)C(=O)N[C@@H](C(=O)N1CCC[C@H]1C(=O)N[C@H](C(=O)N[C@@H](CCCCN)C(=O)N[C@@H](CC(C)C)C(=O)N[C@@H](CCCCNC(=O)COCCOCCNC(=O)COCCOCCNC(=O)CC[C@H](NC(=O)CCCCCCCCCCCCCCCCC(=O)O)C(=O)O)C(=O)N[C@@H](CCC(N)=O)C(=O)N[C@H](C(=O)N[C@@H](CC(C)C)C(=O)N[C@@H](CC(C)C)C(=O)N[C@@H](CCCCN)C(=O)N[C@@H](CCC(N)=O)C(=O)N[C@@H](CCC(=O)O)C(=O)N[C@@H](CCCNC(=N)N)C(=O)N[C@@H](CCC(N)=O)C(=O)N[C@@H](CCCCN)C(=O)NC(C)(C)C(=O)N[C@@H](CCC(N)=O)C(=O)N[C@@H](CCCNC(=N)N)C(=O)N[C@@H](CCC(N)=O)C(=O)N[C@@H](CCC(N)=O)C(=O)N[C@@H](C)C(=O)N[C@@H](CCC(=O)O)C(=O)N[C@@H](CCCCN)C(=O)N[C@@H](CC(N)=O)C(=O)N[C@@H](CCCCN)C(=O)N[C@@H](CCC(N)=O)C(=O)N[C@H](C(=O)N[C@@H](CC(C)C)C(=O)N[C@@H](C)C(=O)N[C@@H](CCC(N)=O)C(=O)N[C@H](C(N)=O)C(C)C)[C@@H](C)CC)[C@@H](C)CC)[C@@H](C)CC)C(C)C)C(C)C
B5: peptide of SEQ ID NO: 141 (peptide)
peptide: IVLSLD[dV]PIKLK([AEEA-AEEA-γGlu-C18 diacid])QILLKQARQK[Aib]QRAQAEKNKRILERV-NH2
modifications: N-terminus assumed
SMILES: CC[C@H](C)[C@H](N)C(=O)N[C@H](C(=O)N[C@@H](CC(C)C)C(=O)N[C@@H](CO)C(=O)N[C@@H](CC(C)C)C(=O)N[C@@H](CC(=O)O)C(=O)N[C@@H](C(=O)N1CCC[C@H]1C(=O)N[C@H](C(=O)N[C@@H](CCCCN)C(=O)N[C@@H](CC(C)C)C(=O)N[C@@H](CCCCNC(=O)COCCOCCNC(=O)COCCOCCNC(=O)CC[C@H](NC(=O)CCCCCCCCCCCCCCCCC(=O)O)C(=O)O)C(=O)N[C@@H](CCC(N)=O)C(=O)N[C@H](C(=O)N[C@@H](CC(C)C)C(=O)N[C@@H](CC(C)C)C(=O)N[C@@H](CCCCN)C(=O)N[C@@H](CCC(N)=O)C(=O)N[C@@H](C)C(=O)N[C@@H](CCCNC(=N)N)C(=O)N[C@@H](CCC(N)=O)C(=O)N[C@@H](CCCCN)C(=O)NC(C)(C)C(=O)N[C@@H](CCC(N)=O)C(=O)N[C@@H](CCCNC(=N)N)C(=O)N[C@@H](C)C(=O)N[C@@H](CCC(N)=O)C(=O)N[C@@H](C)C(=O)N[C@@H](CCC(=O)O)C(=O)N[C@@H](CCCCN)C(=O)N[C@@H](CC(N)=O)C(=O)N[C@@H](CCCCN)C(=O)N[C@@H](CCCNC(=N)N)C(=O)N[C@H](C(=O)N[C@@H](CC(C)C)C(=O)N[C@@H](CCC(=O)O)C(=O)N[C@@H](CCCNC(=N)N)C(=O)N[C@H](C(N)=O)C(C)C)[C@@H](C)CC)[C@@H](C)CC)[C@@H](C)CC)C(C)C)C(C)C

Each binder was assayed against T1, anti-target CRF1R receptor (assay: cell-based or functional assay).

Row | Binder | EC50[nM] 0% HSA (cAMP, CRF1R-overexpression CHO cells) [nM] | Emax (%) (cAMP, CRF1R-overexpression CHO cells)
1 | B1 | > 1000 | 23.3
2 | B2 | > 1000 | -0.34
3 | B3 | > 1000 | 20.3
4 | B4 | > 1000 | 28.4

The binders below were run against T2, endogenous human CRF2 (NCI-H82 cells) (assay: cell-based or functional assay).

Row | Binder | EC50 [nM] (cAMP, NCI-H82 cells)
5 | B1 | 110
6 | B2 | 4.1
7 | B3 | 4.3
8 | B4 | 110
9 | B5 | 12

What follows are binders tested against rat CRF2R α receptor (rat, UniProt P47866 20-411) (assay: cell-based or functional assay).

Row | Binder | EC50 [nM], 0% HSA (cAMP, A7R5 cells) [nM]
10 | B1 | 0.94
11 | B2 | 1.02
12 | B3 | 0.13
13 | B4 | 0.13
14 | B5 | 0.05
